Entries after “also recorded” stand apart in the source; their conditions may differ.
Legend:
[1] = test system: MDA231luc cells; format: cell-based, human
[2] = target: EGFR (Homo sapiens, UniProt P00533); format: cell-based, rat
[3] = target: GRP78/BiP (Homo sapiens, UniProt P11021); format: cell-based
[4] = test system: MDA231luc cells; format: cell-based, human; remark: listed apart in the source
[5] = test system: caspase-3/7; format: cell-based, human
[6] = test system: α-fodrin; format: cell-based, human
[7] = test system: MDA231luc-Dox cells; format: cell-based, human
[8] = test system: F98/EGFR-Dox cells; format: cell-based, rat
[9] = test system: parental F98 cells

Chain of GRP78/BiP (P11021 19-654): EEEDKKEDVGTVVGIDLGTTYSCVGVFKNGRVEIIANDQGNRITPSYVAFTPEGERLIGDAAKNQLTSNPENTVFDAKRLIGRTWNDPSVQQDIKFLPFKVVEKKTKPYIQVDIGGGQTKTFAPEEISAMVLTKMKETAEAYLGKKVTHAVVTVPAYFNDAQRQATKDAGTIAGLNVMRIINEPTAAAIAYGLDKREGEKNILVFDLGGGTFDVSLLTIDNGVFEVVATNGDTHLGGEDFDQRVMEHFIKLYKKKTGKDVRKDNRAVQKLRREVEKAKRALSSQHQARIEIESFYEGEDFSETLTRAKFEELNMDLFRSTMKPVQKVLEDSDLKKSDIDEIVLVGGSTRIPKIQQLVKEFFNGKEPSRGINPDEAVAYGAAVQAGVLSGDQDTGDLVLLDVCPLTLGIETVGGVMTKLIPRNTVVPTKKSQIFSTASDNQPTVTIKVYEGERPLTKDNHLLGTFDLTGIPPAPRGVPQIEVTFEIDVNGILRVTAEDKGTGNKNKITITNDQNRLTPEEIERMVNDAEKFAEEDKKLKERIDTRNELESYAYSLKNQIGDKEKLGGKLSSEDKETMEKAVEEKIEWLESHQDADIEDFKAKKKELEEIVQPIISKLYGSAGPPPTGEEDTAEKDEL

B1: EGF-SubA: fusion protein (SEQ ID NO:13): Cys-tag, linker, human EGF, linker, 326 amino acid SubA fragment (protein)
chain: MKESCAKKFQRQHMDSGGGGSGGGGSGGGGSMGNSDSECPLSHDGYCLHDGVCMYIEALDKYACNCVVGYIGERCQYRDLKWWELRSMADIGSEKPWYFDAIGLTETTMSLTDKNTPVVVSVVDSGVAFIGGLSDSEFAKFSFTQDGSPFPVKKSEALYIHGTAMASLIASRYGIYGVYPHALISSRRVIPDGVQDSWIRAIESIMSNVFLAPGEEKIINISGGQKGVASASVWTELLSRMGRNNDRLIVAAVGNDGADIRKLSAQQRIWPAAYHPVSSVNKKQDPVIRVAALAQYRKGETPVLHGGGITGSRFGNNWVDIAAPGQNITFLRPDAKTGTGSGTSEATAIVSGVLAAMTSCNPRATATELKRTLLESADKYPSLVDKVTEGRVLNAEKAISMFCKKNYIPVRQGRMSEEL
modifications: fusion protein of subA and human EGF with cys tag consisting of SEQ ID NOS 7 to 12
effect of excess EGF on EGF-SubA toxicity [1]: inhibited by excess of EGF; also recorded: excess of free EGF rescue cells
fold lower sensitivity of MDA-231luc cells vs F98/EGFR cells [1]: 10 fold
EGFR tyrosine autophosphorylation [2]: induced EGFR tyrosine autophosphorylation in the same concentration range
cleavage of BiP in combination treatment [3]: effective cleavage of BiP
cleavage of intracellular GRP78/BiP [3]: appearance of a 28-kDa fragment; also recorded: selectively cleaves intracellular BiP
effect on bortezomib-induced cell growth inhibition [4]: enhances cell growth inhibition
effect on thapsigargin-induced cell growth inhibition [4]: enhances cell growth inhibition
total DEVD- and specific caspase-3/7 activity [5]: significant increase
accumulation of 150-kDa and 120-kDa fragments of α-fodrin [6]: Greater accumulation
sensitivity of MDA231luc-Dox cells relative to parental MDA231luc [7]: Enhanced sensitivity; also recorded: significantly more sensitive
sensitivity of F98/EGFR-Dox cells relative to parental F98/EGFR [8]: Enhanced sensitivity; also recorded: significantly more sensitive
IC50 [9]: ~2.5 nM

Reference: patent publication US20100104550A1 (priority 2006, published 2010)
